{"source": "paper PMC11984883", "about": "“ACAT1‐Mediated ME2 Acetylation Drives Chemoresistance in Ovarian Cancer by Linking Glutaminolysis to Lactate Production” (Advanced Science, 2025)", "molecules": {"B1": {"name": "recombinant SIRT4 (enzyme, UniProt Q9Y6E7 29-314, looked up)", "chain": "IGLFVPASPPLDPEKVKELQRFITLSKRLLVMTGAGISTESGIPDYRSEKVGLYARTDRRPIQHGDFVRSAPIRQRYWARNFVGWPQFSSHQPNPAHWALSTWEKLGKLYWLVTQNVDALHTKAGSRRLTELHGCMDRVLCLDCGEQTPRGVLQERFQVLNPTWSAEAHGLAPDGDVFLSEEQVRSFQVPTCVQCGGHLKPDVVFFGDTVNPDKVDFVHKRVKEADSLLVVGSSLQVYSGYRFILTAWEKKLPIAILNIGPTRSDDLACLKLNSRCGELLPLIDPC", "notes": "SIRT4, recombinant protein; also called purified, recombinant SIRT4; source: recombinant, purified"}, "B2": {"name": "recombinant ACAT1 (enzyme, UniProt P24752 34-427, looked up)", "chain": "VSKPTLKEVVIVSATRTPIGSFLGSLSLLPATKLGSIAIQGAIEKAGIPKEEVKEAYMGNVLQGGEGQAPTRQAVLGAGLPISTPCTTINKVCASGMKAIMMASQSLMCGHQDVMVAGGMESMSNVPYVMNRGSTPYGGVKLEDLIVKDGLTDVYNKIHMGSCAENTAKKLNIARNEQDAYAINSYTRSKAAWEAGKFGNEVIPVTVTVKGQPDVVVKEDEEYKRVDFSKVPKLKTVFQKENGTVTAANASTLNDGAAALVLMTADAAKRLNVTPLARIVAFADAAVEPIDFPIAPVYAASMVLKDVGLKKEDIAMWEVNEAFSLVVLANIKMLEIDPQKVNINGGAVSLGHPIGMSGARIVGHLTHALKQGEYGLASICNGGGGASAMLIQKL", "notes": "acetyl-CoA acetyltransferase 1 (ACAT1), recombinant protein; also called purified, recombinant ACAT1; source: recombinant, purified"}}, "key": {"ME2 (malic enzyme 2)": {"target": "T1, ME2 (malic enzyme 2) (Homo sapiens, UniProt P23368)", "T1 construct": "for the malate assay purified from overexpressing 293T cells treated with cisplatin", "T1 sequence (P23368 19-584)": "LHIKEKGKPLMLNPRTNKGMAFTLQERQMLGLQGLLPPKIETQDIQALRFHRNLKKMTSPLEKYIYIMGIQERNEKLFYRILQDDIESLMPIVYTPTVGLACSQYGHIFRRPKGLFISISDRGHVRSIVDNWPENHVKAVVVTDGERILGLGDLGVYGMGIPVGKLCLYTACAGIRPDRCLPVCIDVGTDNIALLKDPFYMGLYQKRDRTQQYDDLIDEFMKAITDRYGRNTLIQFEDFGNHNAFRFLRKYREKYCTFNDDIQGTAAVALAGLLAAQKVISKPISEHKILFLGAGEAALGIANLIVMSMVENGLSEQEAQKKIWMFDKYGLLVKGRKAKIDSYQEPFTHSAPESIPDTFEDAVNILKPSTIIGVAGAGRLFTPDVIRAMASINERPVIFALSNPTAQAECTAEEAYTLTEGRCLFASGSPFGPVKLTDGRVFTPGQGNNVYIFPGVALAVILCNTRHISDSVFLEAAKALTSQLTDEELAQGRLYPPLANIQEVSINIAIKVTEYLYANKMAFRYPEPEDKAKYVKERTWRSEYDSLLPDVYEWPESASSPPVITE", "test": "[…]-pyruvate binding to Flag-bead-bound ME2, scintillation counting"}, "[1]": {"target": "T2, ME2-flag R511A recombinant protein (UniProt P23368 19-584, R511A)", "T2 construct": "Same construct as m7, with the mutation; also called ME2 R511A; source: recombinant, purified; not shown: Flag, C-terminal, kept", "T2 sequence (P23368 19-584 R511A)": "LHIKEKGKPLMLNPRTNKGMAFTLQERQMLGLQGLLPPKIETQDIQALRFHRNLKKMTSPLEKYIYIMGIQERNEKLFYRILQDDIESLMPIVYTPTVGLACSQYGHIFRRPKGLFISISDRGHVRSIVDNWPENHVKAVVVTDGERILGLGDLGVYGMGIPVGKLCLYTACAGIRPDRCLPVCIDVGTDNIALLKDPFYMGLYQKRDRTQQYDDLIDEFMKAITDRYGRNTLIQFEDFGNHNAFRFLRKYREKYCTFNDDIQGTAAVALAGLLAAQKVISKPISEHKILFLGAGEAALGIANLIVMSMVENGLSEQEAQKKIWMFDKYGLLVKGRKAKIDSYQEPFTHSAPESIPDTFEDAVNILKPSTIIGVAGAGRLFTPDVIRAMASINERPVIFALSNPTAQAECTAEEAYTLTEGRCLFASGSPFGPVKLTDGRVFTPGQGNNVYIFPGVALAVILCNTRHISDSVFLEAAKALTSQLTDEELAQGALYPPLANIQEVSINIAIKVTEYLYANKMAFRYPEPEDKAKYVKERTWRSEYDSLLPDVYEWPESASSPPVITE", "test": "pull-down; ME2-flag recombinant protein bound to Flag beads, incubated with recombinant ACAT1 or SIRT4 with or without pyruvate (increasing concentrations) for 20 min at room temperature, unbound protein washed out, western blot", "conditions": "both partners purified"}, "[2]": {"target": "T3, ME2-flag recombinant protein (WT) (UniProt P23368 19-584)", "T3 construct": "malic enzyme 2 (ME2), wild type; If it was made in mammalian cells, the mitochondrial transit peptide is probably removed (surmise); also called purified ME2-flag protein; ME2-flag WT; not shown: Flag, C-terminal, kept", "T3 sequence (P23368 19-584)": "as the sequence (P23368 19-584) above", "test": "pull-down; ME2-flag recombinant protein bound to Flag beads, incubated with recombinant ACAT1 or SIRT4 with or without pyruvate (increasing concentrations) for 20 min at room temperature, unbound protein washed out, western blot", "conditions": "both partners purified"}}, "data": [{"molecule": "CC(=O)C(=O)O", "note": "[pyruvate]", "values": [{"measurement": "Kd", "setting": "ME2 (malic enzyme 2)", "result": "~6.17", "unit": "µM"}]}, {"molecule": "B1", "values": [{"measurement": "binding result", "setting": "[1]", "result": "binds"}, {"measurement": "binding result", "setting": "[2]", "result": "binds"}]}, {"molecule": "B2", "values": [{"measurement": "binding result", "setting": "[1]", "result": "binds"}, {"measurement": "binding result", "setting": "[2]", "result": "binds"}]}]}
